The values below come from article PMC4682817, “The Cardiac Stress Response Factor Ms1 Can Bind to DNA and Has a Function in the Nucleus”.

Series [1] concerns the target T1, Ms1 270-375 (AT-hook + ABD2) (rat, UniProt Q8K4K7 270-375).
T1 sequence: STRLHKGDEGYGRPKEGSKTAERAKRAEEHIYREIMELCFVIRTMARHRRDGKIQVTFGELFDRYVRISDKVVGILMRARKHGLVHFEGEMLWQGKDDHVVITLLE
The series can be described thus: fluorescence titration (intrinsic Trp). The settings on record: EMSA buffer: 20 mM phosphate, 100 mM NaCl, 0.01% Triton X-100, pH 7.5, room temperature; fluorescence and NMR buffers not given in the material.

For series [2], the target named is T1, Ms1 270-375 (AT-hook + ABD2). The series can be described thus: fluorescence titration (intrinsic Trp); EMSA buffer: 20 mM phosphate, 100 mM NaCl, 0.01% Triton X-100, pH 7.5, room temperature; fluorescence and NMR buffers not given in the material. The settings on record: protein: recombinant; tags: N-terminal TEV-cleavable poly-His (pLEICS-07).
Series [3] has the same target. The series can be described thus: NMR titration; shifts in AT-hook only; 1:0.5 to 1:2; EMSA buffer: 20 mM phosphate, 100 mM NaCl, 0.01% Triton X-100, pH 7.5, room temperature; fluorescence and NMR buffers not given in the material. Conditions: protein: recombinant; tags: N-terminal TEV-cleavable poly-His (pLEICS-07); self-complementary.

In the case of scrambled oligo, in series [1], the dissociation constant Kd stood at 31 µM.

B1: A7G oligo (dsDNA)
DNA 1: GACACAGACACAATAG
DNA 2: CTATTGTGTCTGTGTC
As for B1, the Kd in series [2] came to 32 ± 5 µM.

B2: wt oligo (dsDNA)
DNA 1: GACACAAACACAATAG
DNA 2: CTATTGTGTTTGTGTC
With B2, the equilibrium dissociation constant (Kd) in series [2] worked out at 8.2 ± 1 µM.

B3: AT-hook oligo (dsDNA)
DNA 1: CGAATTAATTCG
DNA 2: CGAATTAATTCG
For B3, in series [3], the binding result is “binds”.
